B1: RHOBTB3 (parent)
chain: QLQSMPSRELASMNLDIVDLLKKA
B2: KLHL14 (parent)
chain: CAVLDDSIYLVGGYSWSMGAYKSS

Variants of: B1
Assay: protein stability index of a GFP-peptide fusion (GPS, HEK-293T) (PSI 1-6); higher = more stable
Details: c terminus: a fixed tail appended
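Note: lentivirally expressed fusions sorted by FACS into six bins by GFP to DsRed ratio, PSI derived from sequencing read proportions per bin multiplied by bin number.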

Protein stability index of substitutions, site by site:
A24: G 3.92 | H 3.77 | I 2.98 | K 3.54 | L 3.56 | M 3.39 | N 4.14 | P 3.92 | Q 3.49 | R 3.11 | S 3.47 | T 3.95 | V 3.34 | W 4.13 | Y 3.35

Variants of: B2
Assay: as above
Details: c terminus: a fixed tail appended

Protein stability index of substitutions, site by site:
C1: A 1.72 | D 2.42 | E 1.3 | F 3.37 | G 2 | H 1.74 | I 2.83 | K 2.42 | L 2.09 | M 1.5 | N 1.74 | P 2.28 | Q 1.73 | R 2.03 | S 1.7 | T 1.43 | W 2.63 | Y 1.82
A2: D 1.04 | E 2.37 | F 2.84 | G 1.04 | H 1.85 | I 2.13 | K 2.85 | L 2.18 | M 3.27 | N 2.05 | P 1.61 | Q 1.93 | R 1.3 | S 1.59 | W 2.5 | Y 2.32
V3: A 2.03 | D 1.57 | E 2.77 | F 2.85 | G 1.48 | H 1.67 | I 2.56 | L 2.21 | M 2.9 | N 2.57 | P 2.58 | Q 2.39 | R 2.4 | S 2.3 | T 2.94 | W 2.71 | Y 1.57
L4: A 1.36 | C 1.78 | D 2.19 | G 1.55 | H 2.12 | I 2.15 | K 2.18 | M 2.96 | N 3.26 | P 1.74 | R 2.33 | S 1.49 | T 2.78 | V 1.79 | W 1.6 | Y 2.19
D5: A 2.24 | E 2.7 | F 3.77 | G 1.41 | I 2.19 | K 3.02 | L 3.33 | M 4.24 | N 4.88 | P 2.72 | S 2 | V 2.29 | W 3.27 | Y 1.54
D6: H 2.9 | I 3.34 | K 1.35 | M 4.25 | P 2.97 | Q 1.95 | R 3.76 | S 2.61 | V 1.97 | W 3.66 | Y 1.86
S7: A 2.04 | C 3.58 | E 1.99 | F 2.81 | G 3.23 | H 2.24 | I 2.49 | L 3.32 | M 2.99 | N 2.59 | P 2.54 | Q 3.47 | R 1.84 | T 1.52 | V 2.46 | Y 3.75
I8: A 2.44 | C 3.23 | D 2.22 | E 1.13 | F 2.55 | G 1.22 | H 1.93 | K 1.77 | L 2.23 | M 2.62 | N 1.65 | P 1.93 | Q 1.11 | R 1.64 | S 1.73 | T 3.78 | V 2.52 | W 1.8 | Y 2.96
Y9: A 1.66 | C 3.86 | D 2.37 | E 2.28 | G 1.28 | H 2.3 | I 1.86 | K 1.36 | L 3.26 | M 3.37 | N 1.56 | P 2.22 | Q 1.62 | R 3.35 | S 1.51 | T 2.18 | W 2.43
L10: A 1.55 | C 3.76 | D 1.94 | E 1.33 | F 3.26 | G 2.23 | H 1.59 | I 1.68 | K 2.05 | M 1.95 | N 1.98 | P 1.1 | Q 1.23 | R 2.45 | S 1.83 | T 1.96 | W 3.36 | Y 2.08
V11: A 1.94 | C 1.91 | D 1.94 | E 2.33 | F 1.6 | G 1.93 | H 1.88 | I 3.25 | K 2.1 | L 1.72 | M 3.05 | N 2.2 | P 1.56 | Q 1.79 | R 1.24 | S 2.21 | T 1.83 | W 1.7 | Y 2.44
G12: A 3.1 | C 3.07 | D 2.39 | E 3.21 | F 2.23 | H 2.92 | I 2.47 | K 2.13 | L 2.9 | M 2.24 | N 3.82 | P 2.79 | Q 2.89 | R 2.52 | S 1.46 | V 2.65 | Y 1.55
G13: A 3.61 | C 2.36 | D 1.98 | F 2.97 | H 3.56 | I 2.92 | K 1.51 | M 3.5 | N 2.32 | P 1.73 | Q 2.49 | R 2.08 | S 1.95 | T 3.26 | V 1.27 | W 3.56 | Y 1.73
Y14: A 1.55 | C 2.15 | D 2.23 | E 1.69 | F 2.66 | G 1.2 | H 1.83 | K 1.73 | L 1.86 | M 2.42 | N 1.53 | P 1.91 | Q 2.03 | R 1.74 | S 1.83 | T 1.44 | V 2.19 | W 2.93
S15: A 3.83 | D 2.34 | E 1.03 | F 2.58 | G 2.88 | H 1.65 | I 2.56 | K 2.83 | M 4.83 | N 2.28 | P 2.77 | Q 2.44 | R 1.86 | T 2.38 | V 3.31 | W 2.25 | Y 1.87
W16: A 1.78 | D 2.14 | E 2.53 | F 2.87 | G 1.95 | H 1.79 | I 2.35 | K 1.94 | M 3.09 | N 1.89 | P 2.38 | Q 1.8 | R 1.78 | S 2.01 | T 1.74 | V 1.03 | Y 2.02
S17: A 3.94 | D 1.52 | E 2.25 | G 2.69 | H 1.98 | I 1.92 | K 2.48 | L 3.11 | M 1.49 | N 1.53 | P 1.54 | Q 2.79 | T 2.27 | V 1.96 | W 3.53 | Y 2.9
M18: A 2.89 | C 2.26 | D 2.09 | E 2.53 | F 2.48 | G 1.68 | H 2.5 | I 3.21 | K 1.91 | L 2.48 | N 1.46 | P 1.62 | Q 2.67 | R 2.11 | S 1.73 | T 2.15 | W 3.11 | Y 2.48
G19: A 2.33 | C 3 | E 1.22 | F 3.41 | H 3.16 | I 2.9 | K 2.23 | L 3.64 | N 2.06 | P 1.96 | Q 1.62 | R 2.98 | S 2.83 | T 2.01 | V 1.97 | W 3.29 | Y 3.83
A20: C 2.64
